Test results: patent US10919943B2, “Mutant proteins enabling agrochemical control of plant gene expression” (The Regents of the University of California, priority 2016, dated 2021)
Changes are numbered by the printed parent chain. Numbers in names are those of the source.

B1: E203T: HAB1 mutant (protein, listed as Arabidopsis thaliana)
chain: MEEMTPAVAMTLSLAANTMCESSPVEITQLKNVTDAADLLSDSENQSFCNGGTECTMEDVSELEEVGEQDLLKTLSDTRSGSSNVFDEDDVLSVVEDNSAVISEGLLVVDAGSELSLSNTAMEIDNGRVLATAIIVGESSIEQVPTAEVLIAGVNQDTNTSEVVIRLPDENSNHLVKGRSVYELDCIPLWGTVSIQGNRSEMTDAFAVSPHFLKLPIKMLMGDHEGMSPSLTHLTGHFFGVYDGHGGHKVADYCRDRLHFALAEEIERIKDELCKRNTGEGRQVQWDKVFTSCFLTVDGEIEGKIGRAVVGSSDKVLEAVASETVGSTAVVALVCSSHIVVSNCGDSRAVLFRGKEAMPLSVDHKPDREDEYARIENAGGKVIQWQGARVFGVLAMSRSIGDRYLKPYVIPEPEVTFMPRSREDECLILASDGLWDVMNNQEVCEIARRRILMWHKKNGAPPLAERGKGIDPACQAAADYLSMLALQKGSKDNISIIVIDLKAQRKFKTRT
B2: E203D: HAB1 mutant (protein, listed as Arabidopsis thaliana)
chain: B1 chain with T203D
B3: E203W: HAB1 mutant (protein, listed as Arabidopsis thaliana)
chain: B1 chain with T203W
B4: Y404K: HAB1 mutant (protein, UniProt Q9CAJ0 23-511, looked up, variant Y404K)
Protein phosphatase 2C 16: SPVEITQLKNVTDAADLLSDSENQSFCNGGTECTMEDVSELEEVGEQDLLKTLSDTRSGSSNVFDEDDVLSVVEDNSAVISEGLLVVDAGSELSLSNTAMEIDNGRVLATAIIVGESSIEQVPTAEVLIAGVNQDTNTSEVVIRLPDENSNHLVKGRSVYELDCIPLWGTVSIQGNRSEMEDAFAVSPHFLKLPIKMLMGDHEGMSPSLTHLTGHFFGVYDGHGGHKVADYCRDRLHFALAEEIERIKDELCKRNTGEGRQVQWDKVFTSCFLTVDGEIEGKIGRAVVGSSDKVLEAVASETVGSTAVVALVCSSHIVVSNCGDSRAVLFRGKEAMPLSVDHKPDREDEYARIENAGGKVIQWQGARVFGVLAMSRSIGDRKLKPYVIPEPEVTFMPRSREDECLILASDGLWDVMNNQEVCEIARRRILMWHKKNGAPPLAERGKGIDPACQAAADYLSMLALQKGSKDNISIIVIDLKAQRKFKTRT
B5: H245R: HAB1 mutant (protein, UniProt Q9CAJ0 23-511, looked up, variant H245R)
Protein phosphatase 2C 16: B4 Protein phosphatase 2C 16 with H223R, K382Y
B6: H245W: HAB1 mutant (protein, UniProt Q9CAJ0 23-511, looked up, variant H245W)
Protein phosphatase 2C 16: B4 Protein phosphatase 2C 16 with H223W, K382Y
B7: G246R: HAB1 mutant (protein, UniProt Q9CAJ0 23-511, looked up, variant G246R)
Protein phosphatase 2C 16: B4 Protein phosphatase 2C 16 with G224R, K382Y
B8: G246S: HAB1 mutant (protein, UniProt Q9CAJ0 23-511, looked up, variant G246S)
Protein phosphatase 2C 16: B4 Protein phosphatase 2C 16 with G224S, K382Y
B9: H245P: HAB1 mutant (protein, UniProt Q9CAJ0 23-511, looked up, variant H245P)
Protein phosphatase 2C 16: B4 Protein phosphatase 2C 16 with H223P, K382Y
B10: H245K: HAB1 mutant (protein, UniProt Q9CAJ0 23-511, looked up, variant H245K)
Protein phosphatase 2C 16: B4 Protein phosphatase 2C 16 with H223K, K382Y
B11: H245S: HAB1 mutant (protein, UniProt Q9CAJ0 23-511, looked up, variant H245S)
Protein phosphatase 2C 16: B4 Protein phosphatase 2C 16 with H223S, K382Y
B12: E201H: HAB1 mutant (protein, UniProt Q9CAJ0 23-511, looked up, variant E201H)
Protein phosphatase 2C 16: B4 Protein phosphatase 2C 16 with E179H, K382Y
B13: H245E: HAB1 mutant (protein, UniProt Q9CAJ0 23-511, looked up, variant H245E)
Protein phosphatase 2C 16: B4 Protein phosphatase 2C 16 with H223E, K382Y
B14: H245F: HAB1 mutant (protein, UniProt Q9CAJ0 23-511, looked up, variant H245F)
Protein phosphatase 2C 16: B4 Protein phosphatase 2C 16 with H223F, K382Y
B15: H245C: HAB1 mutant (protein, UniProt Q9CAJ0 23-511, looked up, variant H245C)
Protein phosphatase 2C 16: B4 Protein phosphatase 2C 16 with H223C, K382Y
B16: H245I: HAB1 mutant (protein, UniProt Q9CAJ0 23-511, looked up, variant H245I)
Protein phosphatase 2C 16: B4 Protein phosphatase 2C 16 with H223I, K382Y
B17: G246N: HAB1 mutant (protein, UniProt Q9CAJ0 23-511, looked up, variant G246N)
Protein phosphatase 2C 16: B4 Protein phosphatase 2C 16 with G224N, K382Y
B18: H245M: HAB1 mutant (protein, UniProt Q9CAJ0 23-511, looked up, variant H245M)
Protein phosphatase 2C 16: B4 Protein phosphatase 2C 16 with H223M, K382Y
B19: E201K: HAB1 mutant (protein, UniProt Q9CAJ0 23-511, looked up, variant E201K)
Protein phosphatase 2C 16: B4 Protein phosphatase 2C 16 with E179K, K382Y
B20: G246A: HAB1 mutant (protein, UniProt Q9CAJ0 23-511, looked up, variant G246A)
Protein phosphatase 2C 16: B4 Protein phosphatase 2C 16 with G224A, K382Y
B21: H245L: HAB1 mutant (protein, UniProt Q9CAJ0 23-511, looked up, variant H245L)
Protein phosphatase 2C 16: B4 Protein phosphatase 2C 16 with H223L, K382Y
B22: G246M: HAB1 mutant (protein, UniProt Q9CAJ0 23-511, looked up, variant G246M)
Protein phosphatase 2C 16: B4 Protein phosphatase 2C 16 with G224M, K382Y
B23: H245V: HAB1 mutant (protein, UniProt Q9CAJ0 23-511, looked up, variant H245V)
Protein phosphatase 2C 16: B4 Protein phosphatase 2C 16 with H223V, K382Y
B24: H245N: HAB1 mutant (protein, UniProt Q9CAJ0 23-511, looked up, variant H245N)
Protein phosphatase 2C 16: B4 Protein phosphatase 2C 16 with H223N, K382Y
B25: G246Q: HAB1 mutant (protein, UniProt Q9CAJ0 23-511, looked up, variant G246Q)
Protein phosphatase 2C 16: B4 Protein phosphatase 2C 16 with G224Q, K382Y
B26: H245Q: HAB1 mutant (protein, UniProt Q9CAJ0 23-511, looked up, variant H245Q)
Protein phosphatase 2C 16: B4 Protein phosphatase 2C 16 with H223Q, K382Y
B27: G246P: HAB1 mutant (protein, UniProt Q9CAJ0 23-511, looked up, variant G246P)
Protein phosphatase 2C 16: B4 Protein phosphatase 2C 16 with G224P, K382Y
B28: H245Y: HAB1 mutant (protein, UniProt Q9CAJ0 23-511, looked up, variant H245Y)
Protein phosphatase 2C 16: B4 Protein phosphatase 2C 16 with H223Y, K382Y
B29: G246L: HAB1 mutant (protein, UniProt Q9CAJ0 23-511, looked up, variant G246L)
Protein phosphatase 2C 16: B4 Protein phosphatase 2C 16 with G224L, K382Y
B30: H245T: HAB1 mutant (protein, UniProt Q9CAJ0 23-511, looked up, variant H245T)
Protein phosphatase 2C 16: B4 Protein phosphatase 2C 16 with H223T, K382Y
B31: H245G: HAB1 mutant (protein, UniProt Q9CAJ0 23-511, looked up, variant H245G)
Protein phosphatase 2C 16: B4 Protein phosphatase 2C 16 with H223G, K382Y
B32: H245A: HAB1 mutant (protein, UniProt Q9CAJ0 23-511, looked up, variant H245A)
Protein phosphatase 2C 16: B4 Protein phosphatase 2C 16 with H223A, K382Y
B33: H245D: HAB1 mutant (protein, UniProt Q9CAJ0 23-511, looked up, variant H245D)
Protein phosphatase 2C 16: B4 Protein phosphatase 2C 16 with H223D, K382Y

Molecular target: T1, PYR1 (Arabidopsis thaliana, UniProt O49686)
T1 construct: expressed in transfected cells; host or cells: S. cerevisiae strain Y190
T1 sequence (O49686 1-191): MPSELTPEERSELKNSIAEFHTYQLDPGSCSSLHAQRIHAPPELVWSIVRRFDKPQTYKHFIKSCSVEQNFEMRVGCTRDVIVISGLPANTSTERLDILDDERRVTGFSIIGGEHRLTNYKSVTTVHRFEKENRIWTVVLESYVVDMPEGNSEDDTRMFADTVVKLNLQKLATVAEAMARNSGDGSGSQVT
Experiment: Yeast two hybrid of pACT-HAB1 site saturation mutants with pBD-PYR1 on 10 μM ABA, β-galactosidase staining
Assay type: cell-based
Design: key: x: Mutations in HAB1 that disrupt HAB1 interaction with PYR1
Conditions: S. cerevisiae Y190, 10 μM ABA; dead = lack of detectable staining in comparison to wild type control
Method in brief: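 Read-out is β-galactosidase staining of chloroform-lysed Y190 colonies grown 2 days at 30 °C on SD (-Leu,-Trp) plus 10 μM ABA. Each pACT-HAB1 single-substitution mutant (N-terminally truncated by three residues) was paired with pBD-PYR1; absence of detectable staining relative to wild type scored as dead.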

Molecule | Mutations in HAB1 that disrupt HAB1 interaction with PYR1
B1 | x
B2 | x
B3 | x
B4 | x
B5 | x
B6 | x
B7 | x
B8 | x
B9 | x
B10 | x
B11 | x
B12 | x
B13 | x
B14 | x
B15 | x
B16 | x
B17 | x

Molecule | Mutations in HAB1 that disrupt HAB1 interaction with PYR1
B18 | x
B19 | x
B20 | x
B21 | x
B22 | x
B23 | x
B24 | x
B25 | x
B26 | x
B27 | x
B28 | x
B29 | x
B30 | x
B31 | x
B32 | x
B33 | x
